Reference: patent US20200377590A1 (Hoffmann-La Roche, published 2020)

T1: CD81 (UniProt P60033 1-236, limits assumed)
T1 construct: whole, on cells; also called CD81 receptor
T1 sequence (looked up): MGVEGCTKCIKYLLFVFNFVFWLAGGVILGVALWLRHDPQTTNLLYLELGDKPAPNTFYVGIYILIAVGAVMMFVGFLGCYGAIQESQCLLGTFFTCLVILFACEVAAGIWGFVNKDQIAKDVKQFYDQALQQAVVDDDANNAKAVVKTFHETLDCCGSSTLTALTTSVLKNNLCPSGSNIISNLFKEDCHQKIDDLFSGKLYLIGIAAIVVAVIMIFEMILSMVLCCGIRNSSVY

B1: CD81K04 HC GG-05-hVH_1_18 / LC GG-02-hVK_4_1 (antibody, V domains shown)
VH: QVQLVQSGAEVKKPGASVKVSCKASGYTFSSSWMNWVRQAPGQGLEWMGRIYSGDGDAIYAQKLQGRVTMTTDTSTSTAYMELRSLRSDDTAVYYCAREGKTGDLLLRSWGQGTLVTVSS
VL: DIVMTQSPDSLAVSLGERATINCKSSKSVSTSIYSYMHWYQQKPGQPPKLLIYYASYRESGVPDRFSGSGSGTDFTLTISSLQAEDVAVYYCQHSREFPFTFGQGTKLEIK
notes: human constant region
B2: CD81K04 HC JA_GG-14-hVH_1_3 / LC GG-03-hVK_4_1 (antibody, V domains shown)
VH: QVQLVQSGAEVKKPGASVKVSCKASGYTFSSSWMNWVRQAPGQGLEWMGRIYSGDGDAIYNGKFKGRATITADTSASTAYMELSSLRSEDTAVYYCAREGKTGDLLLRSWGQGTLVTVSS
VL: DIVMTQSPDSLAVSLGERATINCKSSKSVSTSIYSYLAWYQQKPGQPPKLLIYYASYRESGVPDRFSGSGSGTDFTLTISSLQAEDVAVYYCQHSREFPFTFGQGTKLEIK
notes: human constant region
B3: CD81K04 HC JA_GG-14-hVH_1_3 / LC JA_GG-10-hVK_4_1 (antibody, V domains shown)
VH: QVQLVQSGAEVKKPGASVKVSCKASGYTFSSSWMNWVRQAPGQGLEWMGRIYSGDGDAIYNGKFKGRATITADTSASTAYMELSSLRSEDTAVYYCAREGKTGDLLLRSWGQGTLVTVSS
VL: DIVMTQSPDSLAVSLGERATINCRASKSVSTSIYSYMHWYQQKPGQPPKLLIKYASYLESGVPDRFSGSGSGTDFTLTISSLQAEDVAVYYCEHSREFPFTFGQGTKLEIK
notes: human constant region
B4: CD81K04 HC JA_GG-14-hVH_1_3 / LC GG-02-hVK_4_1 (antibody, V domains shown)
VH: QVQLVQSGAEVKKPGASVKVSCKASGYTFSSSWMNWVRQAPGQGLEWMGRIYSGDGDAIYNGKFKGRATITADTSASTAYMELSSLRSEDTAVYYCAREGKTGDLLLRSWGQGTLVTVSS
VL: DIVMTQSPDSLAVSLGERATINCKSSKSVSTSIYSYMHWYQQKPGQPPKLLIYYASYRESGVPDRFSGSGSGTDFTLTISSLQAEDVAVYYCQHSREFPFTFGQGTKLEIK
notes: human constant region
B5: CD81K04 HC JA_GG-14-hVH_1_3 / LC JA_GG-09-hVK_4_1 (antibody, V domains shown)
VH: QVQLVQSGAEVKKPGASVKVSCKASGYTFSSSWMNWVRQAPGQGLEWMGRIYSGDGDAIYNGKFKGRATITADTSASTAYMELSSLRSEDTAVYYCAREGKTGDLLLRSWGQGTLVTVSS
VL: DIVMTQSPDSLAVSLGERATINCKSSKSVSTSIYSYMHWYQQKPGQPPKLLIKYASTRESGVPDRFSGSGSGTDFTLTISSLQAEDVAVYYCEHSREFPFTFGQGTKLEIK
notes: human constant region
B6: CD81K04 HC JA_GG-13-hVH_1_69 / LC JA_GG-10-hVK_4_1 (antibody, V domains shown)
VH: QVQLVQSGAEVKKPGSSVKVSCKASGGTFSSSWMNWVRQAPGQGLEWMGRIYSGDGDAIYAQKFQGRVTITADESTSTAYMELSSLRSEDTAVYYCAREGKTGDLLLRSWGQGTLVTVSS
VL: DIVMTQSPDSLAVSLGERATINCRASKSVSTSIYSYMHWYQQKPGQPPKLLIKYASYLESGVPDRFSGSGSGTDFTLTISSLQAEDVAVYYCEHSREFPFTFGQGTKLEIK
notes: human constant region
B7: CD81K04 HC GG-05-hVH_1_18 / LC JA_GG-09-hVK_4_1 (antibody, V domains shown)
VH: QVQLVQSGAEVKKPGASVKVSCKASGYTFSSSWMNWVRQAPGQGLEWMGRIYSGDGDAIYAQKLQGRVTMTTDTSTSTAYMELRSLRSDDTAVYYCAREGKTGDLLLRSWGQGTLVTVSS
VL: DIVMTQSPDSLAVSLGERATINCKSSKSVSTSIYSYMHWYQQKPGQPPKLLIKYASTRESGVPDRFSGSGSGTDFTLTISSLQAEDVAVYYCEHSREFPFTFGQGTKLEIK
notes: human constant region
B8: CD81K04 HC JA_GG-14-hVH_1_3 / LC GG-04-hVK_4_1 (antibody, V domains shown)
VH: QVQLVQSGAEVKKPGASVKVSCKASGYTFSSSWMNWVRQAPGQGLEWMGRIYSGDGDAIYNGKFKGRATITADTSASTAYMELSSLRSEDTAVYYCAREGKTGDLLLRSWGQGTLVTVSS
VL: DIVMTQSPDSLAVSLGERATINCKSSKSVSTSIYSYLAWYQQKPGQPPKLLIYYASTRESGVPDRFSGSGSGTDFTLTISSLQAEDVAVYYCQHSREFPYTFGQGTKLEIK
notes: human constant region
B9: CD81K04 HC GG-05-hVH_1_18 / LC GG-04-hVK_4_1 (antibody, V domains shown)
VH: QVQLVQSGAEVKKPGASVKVSCKASGYTFSSSWMNWVRQAPGQGLEWMGRIYSGDGDAIYAQKLQGRVTMTTDTSTSTAYMELRSLRSDDTAVYYCAREGKTGDLLLRSWGQGTLVTVSS
VL: DIVMTQSPDSLAVSLGERATINCKSSKSVSTSIYSYLAWYQQKPGQPPKLLIYYASTRESGVPDRFSGSGSGTDFTLTISSLQAEDVAVYYCQHSREFPYTFGQGTKLEIK
notes: human constant region
B10: CD81K04 HC JA_GG-13-hVH_1_69 / LC GG-02-hVK_4_1 (antibody, V domains shown)
VH: QVQLVQSGAEVKKPGSSVKVSCKASGGTFSSSWMNWVRQAPGQGLEWMGRIYSGDGDAIYAQKFQGRVTITADESTSTAYMELSSLRSEDTAVYYCAREGKTGDLLLRSWGQGTLVTVSS
VL: DIVMTQSPDSLAVSLGERATINCKSSKSVSTSIYSYMHWYQQKPGQPPKLLIYYASYRESGVPDRFSGSGSGTDFTLTISSLQAEDVAVYYCQHSREFPFTFGQGTKLEIK
notes: human constant region
B11: CD81K04 HC JA_GG-13-hVH_1_69 / LC GG-04-hVK_4_1 (antibody, V domains shown)
VH: QVQLVQSGAEVKKPGSSVKVSCKASGGTFSSSWMNWVRQAPGQGLEWMGRIYSGDGDAIYAQKFQGRVTITADESTSTAYMELSSLRSEDTAVYYCAREGKTGDLLLRSWGQGTLVTVSS
VL: DIVMTQSPDSLAVSLGERATINCKSSKSVSTSIYSYLAWYQQKPGQPPKLLIYYASTRESGVPDRFSGSGSGTDFTLTISSLQAEDVAVYYCQHSREFPYTFGQGTKLEIK
notes: human constant region
B12: CD81K04 HC JA_GG-14-hVH_1_3 / LC JA_GG-08-hVK_4_1 (antibody, V domains shown)
VH: QVQLVQSGAEVKKPGASVKVSCKASGYTFSSSWMNWVRQAPGQGLEWMGRIYSGDGDAIYNGKFKGRATITADTSASTAYMELSSLRSEDTAVYYCAREGKTGDLLLRSWGQGTLVTVSS
VL: DIVMTQSPDSLAVSLGERATINCKSSKSVSTSIYSYMHWYQQKPGQPPKLLIKYASYLESGVPDRFSGSGSGTDFTLTISSLQAEDVAVYYCEHSREFPFTFGQGTKLEIK
notes: human constant region
B13: CD81K04 HC JA_GG-13-hVH_1_69 / LC JA_GG-09-hVK_4_1 (antibody, V domains shown)
VH: QVQLVQSGAEVKKPGSSVKVSCKASGGTFSSSWMNWVRQAPGQGLEWMGRIYSGDGDAIYAQKFQGRVTITADESTSTAYMELSSLRSEDTAVYYCAREGKTGDLLLRSWGQGTLVTVSS
VL: DIVMTQSPDSLAVSLGERATINCKSSKSVSTSIYSYMHWYQQKPGQPPKLLIKYASTRESGVPDRFSGSGSGTDFTLTISSLQAEDVAVYYCEHSREFPFTFGQGTKLEIK
notes: human constant region
B14: CD81K04 HC GG-05-hVH_1_18 / LC JA_GG-08-hVK_4_1 (antibody, V domains shown)
VH: QVQLVQSGAEVKKPGASVKVSCKASGYTFSSSWMNWVRQAPGQGLEWMGRIYSGDGDAIYAQKLQGRVTMTTDTSTSTAYMELRSLRSDDTAVYYCAREGKTGDLLLRSWGQGTLVTVSS
VL: DIVMTQSPDSLAVSLGERATINCKSSKSVSTSIYSYMHWYQQKPGQPPKLLIKYASYLESGVPDRFSGSGSGTDFTLTISSLQAEDVAVYYCEHSREFPFTFGQGTKLEIK
notes: human constant region
B15: CD81K04 HC JA_GG-13-hVH_1_69 / LC JA_GG-08-hVK_4_1 (antibody, V domains shown)
VH: QVQLVQSGAEVKKPGSSVKVSCKASGGTFSSSWMNWVRQAPGQGLEWMGRIYSGDGDAIYAQKFQGRVTITADESTSTAYMELSSLRSEDTAVYYCAREGKTGDLLLRSWGQGTLVTVSS
VL: DIVMTQSPDSLAVSLGERATINCKSSKSVSTSIYSYMHWYQQKPGQPPKLLIKYASYLESGVPDRFSGSGSGTDFTLTISSLQAEDVAVYYCEHSREFPFTFGQGTKLEIK
notes: human constant region
B16: CD81K04 HC JA_GG-13-hVH_1_69 / LC GG-03-hVK_4_1 (antibody, V domains shown)
VH: QVQLVQSGAEVKKPGSSVKVSCKASGGTFSSSWMNWVRQAPGQGLEWMGRIYSGDGDAIYAQKFQGRVTITADESTSTAYMELSSLRSEDTAVYYCAREGKTGDLLLRSWGQGTLVTVSS
VL: DIVMTQSPDSLAVSLGERATINCKSSKSVSTSIYSYLAWYQQKPGQPPKLLIYYASYRESGVPDRFSGSGSGTDFTLTISSLQAEDVAVYYCQHSREFPFTFGQGTKLEIK
notes: human constant region

These binders were tested against T1, CD81 (assay: cell ELISA;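 note: antibody binding to HuH7 cells expressing CD81 versus a CD81-negative HuH7 control line, bound antibody detected by secondary reagent, absorbance at 450 nm with 620 nm reference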).
An ELISA data of 0.664 was found for B1 in this work.
An ELISA data of 0.518 was found for B2 in this work.
An ELISA data of 0.882 was found for B3 in this work.
An ELISA data of 0.575 was found for B4 in this work.
An ELISA data of 0.975 was found for B5 in this work.
An ELISA data of 0.613 was found for B6 in this work.
An ELISA data of 0.889 was found for B7 in this work.
An ELISA data of 0.177 was found for B8 in this work.
An ELISA data of 0.187 was found for B9 in this work.
An ELISA data of 0.172 was found for B10 in this work.
An ELISA data of 0.073 was found for B11 in this work.
An ELISA data of 0.953 was found for B12 in this work.
An ELISA data of 0.776 was found for B13 in this work.
An ELISA data of 0.881 was found for B14 in this work.
An ELISA data of 0.743 was found for B15 in this work.
An ELISA data of 0.115 was found for B16 in this work.
